Our source for the Kd values is doi:10.1101/2020.05.04.075580.

Where two headings read alike, the source gives them in different places.

Data set [1] concerns the target T1, importin alpha2_21-50 peptide (mouse, UniProt P52293). Description: NMR.
Data set [2] concerns the target T1, importin alpha2_21-50 peptide. Put plainly: NMR. This is another data set of the same source.

B1: SOX-POU 15 bp (dsDNA)
DNA 1: GCAGATGCATAACCG
DNA 2: CGGTTATGCATCTGC
Usually Kd stands for the equilibrium constant for the complex coming apart. High values mean weaker binding, low ones tighter binding. On to B1, for which the dissociation constant (Kd) came to 600 µM in data set [1] and 300 nM in data set [2].
